In paper PMC5941314 (2018):

Columns and labels:
Experiment in all cases: ITC 25 C, TWO LABS merged (one a row), salt differs
UBE2L3 = UBE2L3 (Homo sapiens (Human), UniProt P68036)
UBE2D2 = UBE2D2 (Homo sapiens (Human), UniProt P62837)
UBE2N = biological target: T1, UBE2N (Homo sapiens (Human), UniProt P61088)
T1 chain: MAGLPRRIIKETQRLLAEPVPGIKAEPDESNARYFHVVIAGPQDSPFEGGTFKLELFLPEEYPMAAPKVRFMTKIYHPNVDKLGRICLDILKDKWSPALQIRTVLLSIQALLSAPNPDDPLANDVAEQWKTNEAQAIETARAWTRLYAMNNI

Chain of UBE2D2 (P62837 whole entry, looked up): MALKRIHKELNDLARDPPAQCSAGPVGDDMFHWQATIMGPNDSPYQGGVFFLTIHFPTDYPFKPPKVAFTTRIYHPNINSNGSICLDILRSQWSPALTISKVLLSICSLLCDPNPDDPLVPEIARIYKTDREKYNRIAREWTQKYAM
Chain of UBE2L3 (P68036 whole entry): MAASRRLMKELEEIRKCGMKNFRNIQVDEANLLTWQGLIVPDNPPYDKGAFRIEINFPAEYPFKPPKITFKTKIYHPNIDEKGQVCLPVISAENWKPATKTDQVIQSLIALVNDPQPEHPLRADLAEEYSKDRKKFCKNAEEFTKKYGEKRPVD

B1: Arkadia (protein)
chain: KQDGEEGTEEDTEEKCTICLSILEEGEDVRRLPCMHLFHQVCVDQWLITNKKCPICRVDIEAQLPSES
B1 was tested, and the Kd (UBE2L3) was 27.3 µM, the Kd (UBE2D2) was 32 µM and the Kd (UBE2N) was 264 µM.
